From paper PMC7314969, “Natural Transformation in Deinococcus radiodurans: A Genetic Analysis Reveals the Major Roles of DprA, DdrB, RecA, RecF, and RecO Proteins”

T1: DprA (DrDprA) (Deinococcus radiodurans R1 ATCC 13939, UniProt Q9RY31 1-370)
T1 sequence: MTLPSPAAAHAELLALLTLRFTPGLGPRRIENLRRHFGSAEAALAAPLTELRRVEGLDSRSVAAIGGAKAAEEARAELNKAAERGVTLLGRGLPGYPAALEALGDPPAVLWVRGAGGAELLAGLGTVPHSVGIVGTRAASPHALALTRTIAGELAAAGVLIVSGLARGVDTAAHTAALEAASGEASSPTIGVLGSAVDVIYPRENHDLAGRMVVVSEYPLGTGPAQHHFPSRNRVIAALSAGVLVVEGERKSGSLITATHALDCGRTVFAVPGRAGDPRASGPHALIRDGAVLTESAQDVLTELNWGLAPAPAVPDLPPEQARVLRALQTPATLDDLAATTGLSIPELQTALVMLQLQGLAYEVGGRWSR

B1: dT100 (ssDNA)
DNA: TTTTTTTTTTTTTTTTTTTTTTTTTTTTTTTTTTTTTTTTTTTTTTTTTTTTTTTTTTTTTTTTTTTTTTTTTTTTTTTTTTTTTTTTTTTTTTTTTTTT

target: T1, DprA (DrDprA); experiment: fluorescence anisotropy; 2.5 mM Mg2+; apparent Kd; 25 mM NaCl, 20 mM Tris pH 7.5, 2.5 mM MgCl2, 2.5% (v/v) glycerol, 25 nM 5'-fluorescein ssDNA, 20 C; 35-mers of varying GC content (Fig. 5B) also tested, affinity rises with GC, but number, sequences and values not in the material; settings: protein: recombinant; tags: C-terminal His6; chain copies: 2; label: 5'-fluorescein

Going from TTTTTTTTTTTTTTTTTTTT (ssDNA) [dT20] to TTTTTTTTTTTTTTTTTTTTTTTTTTTTTTTTTTTTTTTTTTTTTTTTTT (ssDNA) [dT50], the Kd falls from 7500 nM to 1200 nM (6.2-fold). The second binds more tightly here.

B1 gave a Kd of 1000 nM.
